For four proteins, Km, kcat and kcat/Km results are on record in article PMC11676285, “Enhancement of the Thermostability of Microbacterium Esterase by Combinatorial Rational Design” (Molecules, 2024).

The Km is the substrate concentration at which the rate is half of its maximum. As usually defined, the kcat is the maximal rate divided by the concentration of active sites. The kcat/Km is the second-order rate constant that governs catalysis at low substrate concentration.

Substitutions are numbered along the chain they refer to. Numbers in names are those of the source.

Substrate in the data set: COC(=O)[C@@H]1[C@H](C(=O)OC)N(Cc2ccccc2)C(=O)N1Cc1ccccc1
Put plainly: HPLC of biotin monomethyl ester, Michaelis-Menten fit. Type of data set: biochemical, Microbacterium aurantiacum. As to conditions: pH 8.0, 0.05 M PBS, 30 °C, substrate 0.1 to 10 mM. An excerpt:
HPLC of biotin monomethyl ester, Michaelis-Menten fit on […]01

B1: EstSIT01 (Microbacterium aurantiacum) (protein)
chain: MTLFDGITSRIVDTDRLTVNILERAADDPQTPPDRTVVFVHGNVSSALFWQEIMQDLPSDLRAIAVDLRGFGGSEHAPVDATRGVRDFSDDLHATLEALDIPVAHLVGWSMGGGVVMQYALDHPVLSLTLQSPVSPYGFGGTRRDGSRLTDDDAGCGGGGANPDFIQRLIDHDTSDDAQTSPRSVFRAGYVASDYTTDHEDVWVESMLTTSTADGNYPGDAVPSDNWPGFAAGRHGVLNTMAPQYFDVSGIVDLAEKPPILWIHGTADAIVSDASFYDLNYLGQLGIVPGWPGEDVAPAQEMVSQTRDVLGRYAAGGGTVTEVAVEGAGHSAHLERPAVFRHALLEIIGYVGAAADPAPPTEAIIIRSAD
Turning to B1, the Km stood at 150 ± 20 µM, the kcat is 7.8 ± 0.31 s⁻¹ and the kcat/Km was found to be 51900 M⁻¹ s⁻¹.

B2: EstSIT01 (Microbacterium aurantiacum; E301P/G215A) (protein)
chain: B1 chain with G215A, E301P
Regarding B2, the Km came to 210 ± 40 µM, the kcat is 5.4 ± 0.37 s⁻¹ and the kcat/Km was found to be 25600 M⁻¹ s⁻¹.

B3: EstSIT01 (Microbacterium aurantiacum; E301P/G215A/G293A) (protein)
chain: B1 chain with G215A, G293A, E301P
As to B3, the Km worked out at 180 ± 30 µM, the kcat stood at 6.3 ± 0.39 s⁻¹ and the kcat/Km is 34900 M⁻¹ s⁻¹.

B4: EstSIT01 (Microbacterium aurantiacum; E301P) (protein)
chain: B1 chain with E301P
B4: the Km came to 220 ± 30 µM, the kcat was 5.1 ± 0.28 s⁻¹ and the kcat/Km was 23200 M⁻¹ s⁻¹.
